Reference: patent US20070020267A1

Tests used:
hVEGF (human) [1] = target: hVEGF (human) (UniProt P15692); test: SPR; conditions: Fab
hVEGF (human) [2] = target: hVEGF (human) (UniProt P15692); test: competition; 25 C; conditions: Fab
hVEGF (human) [3] = target: hVEGF (human) (UniProt P15692); test: SPR; 37 C; conditions: Fab
hVEGF (human) [4] = target: hVEGF (human) (UniProt P15692); test: SPR; 25 C; conditions: Fab
mVEGF (mouse) = mVEGF (mouse) (UniProt Q00731); test: competition; 25 C; conditions: Fab
[5] = target: T1, murine VEGF (mVEGF) (mouse) (UniProt Q00731); test: BIAcore or solution binding ELISA, control Fab
T1 sequence (looked up): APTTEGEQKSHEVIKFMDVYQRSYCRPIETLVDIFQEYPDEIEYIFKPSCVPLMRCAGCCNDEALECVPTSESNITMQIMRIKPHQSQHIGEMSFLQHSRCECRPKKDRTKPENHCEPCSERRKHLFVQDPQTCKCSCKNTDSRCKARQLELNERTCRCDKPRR

Chain of Y0317 Fab (VH): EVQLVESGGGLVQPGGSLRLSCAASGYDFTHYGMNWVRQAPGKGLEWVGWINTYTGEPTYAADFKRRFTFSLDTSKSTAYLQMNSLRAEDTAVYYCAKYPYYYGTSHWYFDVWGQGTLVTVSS
Chain of Y0317 Fab (VL): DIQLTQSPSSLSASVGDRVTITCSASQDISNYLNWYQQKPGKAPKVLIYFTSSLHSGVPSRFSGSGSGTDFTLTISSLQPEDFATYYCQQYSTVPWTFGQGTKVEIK

| Substance | Kd (hVEGF (human) [1]) [nM] | IC50 (hVEGF (human) [2]) [nM] | Kd (hVEGF (human) [3]) [nM] | Kd (hVEGF (human) [4]) [nM] | IC50 (mVEGF (mouse)) [nM] | Kd [5] [nM] |
| --- | --- | --- | --- | --- | --- | --- |
| Avastin | 2.9 | 1.1 | 12.9 | 2.9 |  |  |
| Y0317 |  | 0.02 | 0.11 | 0.2 | 300 |  |
| Y0317 Fab |  |  |  |  |  | 350 |
